Columns and labels:
[1] = target: T1, human cytosolic seryl-tRNA synthetase (SerRS), tag-free, purified separately (human, UniProt P49591 1-514); test: 80 uM ADPR
[2] = target: T1, human cytosolic seryl-tRNA synthetase …; test: 2000 uM ADPR
[3] = target: T1, human cytosolic seryl-tRNA synthetase …; test: 2000 uM NAD+

B1: human sirtuin 2 (SIRT2), C-terminal His tag (enzyme)
chain: MAEPDPSHPLETQAGKVQEAQDSDSDSEGGAAGGEADMDFLRNLFSQTLSLGSQKERLLDELTLEGVARYMQSERCRRVICLVGAGISTSAGIPDFRSPSTGLYDNLEKYHLPYPEAIFEISYFKKHPEPFFALAKELYPGQFKPTICHYFMRLLKDKGLLLRCYTQNIDTLERIAGLEQEDLVEAHGTFYTSHCVSASCRHEYPLSWMKEKIFSEVTPKCEDCQSLVKPDIVFFGESLPARFFSCMQSDFLKVDLLLVMGTSLQVQPFASLISKAPLSTPRLLINKEKAGQSDPFLGMIMGLGGGMDFDSKKAYRDVAWLGECDQGCLALAELLGWKKELEDLVRREHASIDAQSGAGVPNPSTSASPKKSPPPAKDEARTTEREKPQ
- Kd [1]: 530 nM
- Kd [2]: 430 nM
- Kd [3]: 530 nM

Reference: article PMC13478228 (2026)
